Laboratory results as given in patent US20220112303A1 (ICHILOV TECH, published 2022).

Key:
[1] = biological target: T1, CD24 on human cells (HT29, colo257, Panc-1, sh-sy5y, PBMCs) (human, UniProt P25063 27-59); assay: whole cell ELISA and flow cytometry on HT29 cells (HCT116 as low-CD24 control)
T1 construct: whole, on cells; also called CD24-positive cells
T1 chain (looked up): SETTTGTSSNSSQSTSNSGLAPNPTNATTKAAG

CD24 antigen = biological target: T2, CD24 antigen (UniProt P25063 27-59); assay: Biacore SPR
T2 chain: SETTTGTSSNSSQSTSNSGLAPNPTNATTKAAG

- binding result [1]: binds
- Kd (CD24 antigen): 18 nM
B1: humanized matured NS17 anti-CD24 antibody (antibody, V domains shown)
VH: QVHLQESGPGLVKPSQTLSLTCAVSGYSISSGYTWHWIRQPPGKTVEWIGYIQYTGSTRYNPALRGRLTMSVDTSKNQFSLKLISVTAADTGVYFCARGTTASFDYWGQGTTVTVSS
VL: DIVMTQSPDSLNVSLGERATIRCRSSQSLLYSSDQKNYLTWYQQKPGQPPKLLISWASPRASGVPDRFSGSGSGTDFTLTISSLQAEDVGVYYCQQYFIYPLTFGVGTKLELK
notes: Tested as whole IgG with human CH1-CH3 and Ck, expressed from the pcDNA4-PCMV-TetO2-IgL-PCMV-TetO2-IgH vector; also called matured antibody
